Source: the supplement of paper PMC10126150
± gives the standard deviation of the averaged measurements.

Each sequence was assayed on ATP (assay: switch fluorescence ratio, 500 uM ATP over buffer (Cy3 cluster intensity, sum of 5 cycles each) (fold (ratio)); higher = stronger signal-on switching upon ATP binding; sequences stand for … in TCGTCGGCAGCGTCAGATGTGTATAAGAGACAGTTTTTTTTTTTTTTTTTTTTTTTTT…TC). Details: aptamer strand: ATP DNA aptamer (quencher-CACCTGGGGGAGTATTGCGGAGGAAGG + anchor), 100 nM annealed; ATP concentration: 500 uM.
How it was run: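 The quencher-labelled ATP aptamer, at 100 nM, was annealed to Cy3-labelled switching-strand clusters on a modified Illumina MiSeq flow-cell. The clusters were imaged in selection buffer, then after 15 min with 500 uM ATP at 22 °C, and this buffer/ATP cycle ran five times with NaOH stripping and re-annealing between runs. Per-cluster fluorescence ratios, summed target-cycle over summed buffer-cycle Cy3 intensity, were averaged per switch-domain sequence. Clusters outside 100-1000 RFU were excluded.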
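Note: ATP exposure 15 min at 22 °C before imaging.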

Sequence	switch fluorescence ratio
AGGGACTTGG	1 ± 0.047
AGGGACTTGT	1 ± 0.03
AGGGAGAACG	0.961 ± 0.047
AGGGAGAAGT	0.9853 ± 0.002
AGGGAGGAGG	0.971 ± 0.024
AGGGAGGCCG	0.98 ± 0.11
AGGGAGGGAT	1.01 ± 0.027
AGGGAGGGTT	1 ± 0.039
AGGGAGTGCT	1.02 ± 0.013
AGGGAGTTAA	0.973 ± 0.054
AGGGAGTTCG	0.977 ± 0.03
AGGGATGTAA	0.992 ± 0.012
AGGGATTCCG	1 ± 0.032
AGGGATTGAT	1.01 ± 0.059
AGGGATTGC	0.973 ± 0.027
AGGGATTTAA	0.988 ± 0.022
AGGGATTTGG	0.987 ± 0.014
AGGGCAACCG	1.04 ± 0.028
AGGGCAAGGA	1.11 ± 0.16
AGGGCAGAGA	1.02 ± 0.046
AGGGCATTCG	0.979 ± 0.026
AGGGCATTGA	1.01 ± 0.022
AGGGCCCCGG	1.03 ± 0.023
AGGGCCCCTG	0.9941 ± 0.0044
AGGGCGACG	1.05 ± 0.079
AGGGCGACGC	0.912 ± 0.025

Sequence	switch fluorescence ratio
AGGGCGGGGT	1.02 ± 0.033
AGGGCGTTGT	0.969 ± 0.035
AGGGCTACAG	1.013 ± 0.0054
AGGGCTGTTC	1.063 ± 0.0045
AGGGCTTTTG	1 ± 0.063
AGGGGAAAAT	0.996 ± 0.028
AGGGGAAACA	1.01 ± 0.031
AGGGGAAAGA	1.02 ± 0.04
AGGGGAAGAA	1 ± 0.019
AGGGGAATTG	0.955 ± 0.021
AGGGGACGGG	1.05 ± 0.037
AGGGGAGAGT	1 ± 0.014
AGGGGAGCGT	1.015 ± 0.0064
AGGGGAGGCT	0.997 ± 0.045
AGGGGAGGGT	1 ± 0.015
AGGGGATAAG	0.992 ± 0.029
AGGGGATCAT	0.981 ± 0.029
AGGGGATTAT	0.998 ± 0.038
AGGGGCACAA	1.01 ± 0.024
AGGGGCAGGG	0.932 ± 0.081
AGGGGCAGTA	0.993 ± 0.032
AGGGGCGTAC	1.07 ± 0.022
AGGGGCTATT	1.01 ± 0.014
AGGGGGACAC	1 ± 0.028
AGGGGGAGTT	0.979 ± 0.025
AGGGGGATAG	0.967 ± 0.052

Sequence	switch fluorescence ratio
AGGGGGATCT	1.03 ± 0.04
AGGGGGATTT	0.999 ± 0.052
AGGGGGCAGG	1.01 ± 0.017
AGGGGGCCTG	0.992 ± 0.01
AGGGGGCGGC	0.995 ± 0.031
AGGGGGGACG	0.915 ± 0.098
AGGGGGGTCT	1.01 ± 0.04
AGGGGGGTGA	1.017 ± 0.0015
AGGGGGGTTA	0.984 ± 0.04
AGGGGGTAAG	0.988 ± 0.028
AGGGGGTAGG	0.978 ± 0.022
AGGGGGTCTG	0.968 ± 0.017
AGGGGGTCTT	1.01 ± 0.016
AGGGGGTGTA	1.02 ± 0.014
AGGGGGTTAT	1.01 ± 0.03
AGGGGGTTCC	0.99 ± 0.033
AGGGGTAAAA	1 ± 0.014
AGGGGTAATT	1.02 ± 0.024
AGGGGTACAG	0.995 ± 0.04
AGGGGTACTG	1.01 ± 0.099
AGGGGTATTG	0.993 ± 0.017
AGGGGTCAAT	0.997 ± 0.0012
AGGGGTCTCA	0.9852 ± 0.0035
AGGGGTCTCT	0.985 ± 0.013
